One molecule from US20190367617A1 (AMPSOURCE BIOPHARMA SHANGHAI, published 2019) can be followed below.

The EC50 is the concentration at which the effect is half-maximal. The Kd is the constant that tells how readily two partners part at equilibrium. By koff is commonly meant the first-order rate constant of dissociation. By kon is commonly meant the rate constant with which the complex forms. As usually defined, the EC50 (read off the curve) is the concentration giving half of the maximal effect.

A value given as a limit tells only on which side of the number the result lay.

In assay [1] the target is T1, Human PD-1 (Sino Biological Inc., Beijing, China) (human, UniProt Q15116 25-167).
T1 construct: also called hPD-1
T1 sequence (Q15116 25-167 limits assumed): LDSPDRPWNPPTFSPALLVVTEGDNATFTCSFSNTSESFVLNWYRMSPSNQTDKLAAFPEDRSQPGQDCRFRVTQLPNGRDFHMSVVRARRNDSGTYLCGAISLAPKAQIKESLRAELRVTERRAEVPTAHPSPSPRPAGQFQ
Kind of assay: indirect ELISA, human PD-1 coated at 0.1 µg/mL. As for the experimental part:
The PBS buffer was aspirated from the 96-well plate, and the plate was washed once with PBST (PBS containing 0.05% Tween 20, pH 7.4). 200 μL of PBST/1% no-fat milk was added to each well and incubated at room temperature for 1 h for blocking. The blocking solution was removed and the plate was washed 3 times with PBST. […] The reaction solution was removed and the plate was washed 3 times with PBST. […] The plate was washed 3 times with PBST.
(In general: In an ELISA, binding on a coated surface is turned into a signal by an enzyme label.)

Assay [2] deals with T2, human ICOS/Fc (Sino Biological Inc.) (human, UniProt Q9Y6W8 21-141, limits assumed).
T2 construct: Bought protein; not shown: Fc
T2 sequence (looked up): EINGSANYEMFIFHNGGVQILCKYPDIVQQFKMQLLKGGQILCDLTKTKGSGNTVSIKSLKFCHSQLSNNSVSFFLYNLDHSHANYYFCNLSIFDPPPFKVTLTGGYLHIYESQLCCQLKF
Kind of assay: indirect ELISA, human ICOS/Fc coated at 0.1 µg/mL, HRP goat anti-mouse IgG. The procedure: (§1) Human PD-1/His, human ICOS/Fc, human CTLA4/His, human CD28/Fc, cynomolgus monkey PD-1/Fc, and mouse PD-1/His (all from Sino Biological Inc., Beijing, China) were diluted with PBS buffer to 0.1 μg/mL, and added to the 96-well plate at a volume of 100 μL/well and placed at 16° C. for 16 to 20 h. The PBS buffer was aspirated from the 96-well plate, and the plate was washed once with PBST (PBS containing 0.05% Tween 20, pH 7.4). 200 μL of PBST/1% no-fat milk was added to each well and incubated at room temperature for 1 h for blocking. The blocking solution was removed and the plate was washed 3 times with PBST. 100 μL of the anti-PD-1 antibody to be tested was added to each well, and incubated at room temperature for 1.5 h. The reaction solution was removed and the plate was washed 3 times with PBST. 50 μL of the HRP-labeled goat anti-mouse IgG secondary antibody (The Jackson Laboratory) diluted (dilution ratio 1:4000) was added to each well. Incubated at room temperature for 1 h. The plate was washed 3 times with PBST. 100 μL of the TMB was added to each well and incubated at room temperature for 5-10 min 50 μL of 0.2 M sulfuric acid was added to each well to terminate the reaction. Absorbance values were read at dual wavelengths of 450/620 nm in a microplate reader.

The target in assay [3] is T3, human PD-1/His (Sino Biological Inc.) (human, UniProt Q15116 25-170).
T3 construct: extracellular domain; Bought protein; also called extracellular domain fragment of PD-1 protein containing His tag; not shown: His tag
T3 sequence (Q15116 25-170): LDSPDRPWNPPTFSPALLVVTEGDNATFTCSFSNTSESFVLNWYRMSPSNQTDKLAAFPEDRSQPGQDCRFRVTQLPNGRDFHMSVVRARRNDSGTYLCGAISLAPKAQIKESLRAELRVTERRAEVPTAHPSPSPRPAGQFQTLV
Kind of assay: BLI (Octet), human PD-1/His on Ni-NTA sensor, antibody 3.125-100 nM. The text has this: We used the bio-layer interferometry (BLI) technique to characterize the binding kinetics and affinity of purified murine monoclonal antibodies. According to the standard procedure, the Octet molecular interaction instrument (ForteBio Octet RED & QK system, PALL corp.) was operated. […] The antigen-antibody association and dissociation kinetics were then tracked.
In general terms: Biolayer interferometry detects binding as a change in optical thickness at a sensor tip.

Assay [4] has as its target T3, human PD-1/His (Sino Biological Inc.). Kind of assay: indirect ELISA, human PD-1/His coated at 0.1 µg/mL, HRP goat anti-mouse IgG. The procedure: as §1
For assay [5], the target named is T4, human CD28/Fc (Sino Biological Inc.) (human, UniProt P10747 19-152).
T4 construct: Bought protein; not shown: Fc
Kind of assay: indirect ELISA, human CD28/Fc coated at 0.1 µg/mL, HRP goat anti-mouse IgG. As for the experimental part: as §1

The target of assay [6] is T5, cynomolgus monkey PD-1/Fc (Sino Biological Inc.) (cynomolgus monkey, UniProt B0LAJ3 25-170).
T5 construct: Bought protein
T5 sequence (B0LAJ3 entry or part of it limits assumed): as the sequence (Q15116 25-170) above, with D2E, P10A, V19L, T35A, Q75R, T144A counted along it
Kind of assay: indirect ELISA, cynomolgus monkey PD-1/Fc coated at 0.1 µg/mL, HRP goat anti-mouse IgG. The procedure: as §1

Assay [7] concerns the target T6, mouse PD-1/His (Sino Biological Inc.) (mouse, UniProt Q02242 25-167).
T6 construct: Bought protein; not shown: His tag
T6 sequence (looked up): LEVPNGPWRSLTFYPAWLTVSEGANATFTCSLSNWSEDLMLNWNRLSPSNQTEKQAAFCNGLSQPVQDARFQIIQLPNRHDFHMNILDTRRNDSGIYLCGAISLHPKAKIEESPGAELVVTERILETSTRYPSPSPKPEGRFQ
Put plainly: indirect ELISA, mouse PD-1/His coated at 0.1 µg/mL, HRP goat anti-mouse IgG. The procedure:
as §1

Assay [8] concerns the target T7, human CTLA4/His (Sino Biological Inc.) (human, UniProt P16410 36-162, limits assumed).
T7 construct: Bought protein; not shown: His tag
Put plainly: indirect ELISA, human CTLA4/His coated at 0.1 µg/mL, HRP goat anti-mouse IgG. The procedure: as §1

T7 sequence (P16410 36-162 limits assumed): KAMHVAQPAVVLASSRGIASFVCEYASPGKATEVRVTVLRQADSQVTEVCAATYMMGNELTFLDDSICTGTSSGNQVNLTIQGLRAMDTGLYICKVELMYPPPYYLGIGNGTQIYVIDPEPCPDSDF

B1: murine monoclonal antibody AB12M1 (antibody, mouse IgG2b, V domains shown)
VH: EVKLVESGGGLVKPGGSLKLSCAASGFTFSSYGMSWVRQTPEKRLEWVATISGGGRDTYYPDSVKGRFTISRDNAKNNLYLQMSSLRSEDTALYYCARQKDTSWFVHWGQGTLVTVSA
VL: not shown
notes: subclass identified as mouse IgG2b (Kappa), purified from hybridoma supernatant; also called antibody of hybridoma clone #32
In assay [1], B1 yielded a concentration giving a half-maximal response (EC50) of about 2 ng/mL. In addition, the binding result in assay [2], in assay [5], in assay [7] and in assay [8] was “no binding (tested: 10 µg/mL)” in each case. In assay [3], this molecule returned a Kd of under 1 pM. In assay [3], the koff was under 1e-07 s⁻¹. The molecule also had an association rate constant (kon) in assay [3] of 109000 M⁻¹ s⁻¹. For the same molecule, the entries for the “EC50 (read off the curve)” value in assay [4] and in assay [6] were about 4 ng/mL and about 3 ng/mL, respectively.
